Assay results reported in patent US20240245805A1 (Orna Therapeutics, Inc., priority 2020, published 2024).

What follows are molecules tested on HEK293 cells. Conditions: circular RNA encoding Gluc with the listed IRES (UTR truncated to 675 nt) transfected into HEK293 cells; supernatant after 24 hours.
Assay type: cell-based, human

Molecule	Expression (luminescence from secreted Gluc protein)
Human pegivirus isolate JD2B1I (nucleic acid, listed as Pegivirus sp.) DNA: TCAGGGTTGGTAGGTCGTAAATCCCGGTCACCTTGGTAGCCACTATAGGTGGGTCTTAAGAGAAGGTTAAGATTCCTCTTGTGCCTGCGGCGAGACCGCGCACGGTCCACAGGTGTTGGCCCTACCGGTGGGAATAAGGGCCCGACGTCAGGCTCGTCGTTAAACCGAGCCCGTCACCCACCTGGGCAAACGACGCCCACGTACGGTCCACGTCGCCCTTCA	6.85E+05
Simian pegivirus (nucleic acid, listed as Pegivirus sp., lipid formulation) DNA: GGGGAATCTCACCCCCCGTCCGGTTCCGGAAGAATCGGAAACCGACACCCTGACCAATCATTCTTGATCATAGAGTGGATGTTAGTGAAAGCCAGACGAAAGCCGGCGGATGGGTGGTGACAGGGTTGGTAGGTCGTAAATCCCGGCCACCCTGGTACCCGGTATAAGTTGGGCGGAAGCTGACTGAAGCTCCGTGCTCTTTTCTGTGCGTTCTTGGTGCACGGTCCACAGGTGACGCCTATACCGGTGTGAATAATAGGCCGACTCGAGCGGAGTCGTTAAACTGAGAACCTCCATACGGATGGCAACTTGGCTTGCGTACGGGGACGCCGCTAAAGTCACAGTGGGTTAAGTCCGGCGGGTTGACAACCCCAGCAAGGCGAGGGGGTCCTATTGTTGGACTCTGCCAGTTCCCGGTGGAGGTAGGCATGGGGTGGCCCAGCTCCGCGGCGCGCTACAGCCGGGGTAGCCCAAAATCCGAAAGGTGAGGGCGGGCCACATGTCCGAAATTTAGTCAAGC	8.56E+04
Pegivirus I (nucleic acid, lipid formulation; Pegivirus I) DNA: AGAATGGTCTAAGTGGTTGCCACCGTGGTCCGAAGGGGAGGAGGACCTACGCTGCCAGGGTTGGCAGGTCGTAAATCCCGGGTGTAGGAGATCCCTCCTTGTTAGGACTGCTGGTAGCTGGGGGGTCGGTGACCCCCTGGGCAACCGCCAAACCCGGACGACCGGGTGGCGGCTCCATGTTGGCACGGTCCACAGGTGTGAACCCTACCGGTGTGAATAAGGGTTGGTGGTTGCGGTCCACCTTAAACGTAGTATGCATTGGGCTTGGTAAAACACCGCTCGTAGTACGGAACGCCGCCTTTAAAGACACAGTAGGCGTAGCCGGCGGGTTGACAATCCATACGGGGGGTGGGGTGTGGTCATGGATCTGTCCACACCACCTTCATGCGGCCCTCTAAGCAAGCCATACCGGGGGGAGGCGCGCGGCACCGCACTGCCGGGCAAGGGGAAGAACCTTCGGGTGACCCCCCCCCAACCACCGTCCGATCAATGCTAATGTTGCGTTTAGGCGTGACACCGGCACA	8.02E+04
Pegivirus K (nucleic acid, lipid formulation; Pegivirus K) DNA: AGAATGGTGTGATCCGTCGCCGCTCCAGCGGAAAGCGGGCGGGATCTAGTGGTTAGGGTTGTTCGCGTAAATCCCACACTAGTGGTACGCTCGTATAACGTGGGAGCAGCCGGTGGGGTCGACCCCCCACCTGGCGGCTGCTGAGCACCGGACGAAGCGCGGGGGGTGAACGCTAACCCGCGGCCCGGGCTGCCAACGTTAGGCACGTCTTGGCTGGAAGACGTTAAACACAGGGCCCCCCCTCAACCCTGATCCGAGGCCAGAGACCAAGGTACGCCGCCCTTTTAAAGGCGTTACTCGTCCAATAGGATCTCTCCGGCGGGTTGTCAAACCTTGCTGGCCCTGGTGATGGTTACGGGAGGGGGTGGGGCGGGGAGTAGAAGCCCCGCCCGGCATGGGGGTACCAAGCTCGGCACGCCCAGCACGCGTGGCGTAGGGGAAAAATCCTTCGGGTGACCCCTGGTACCATAAAGTAATTAACATGAGCATGCCGCTAGGGTGTGCTTTTTCTTCCTTCCTTGGGAAGGCGGTGGCACC	8.07E+04
Theiler's disease-associated virus (nucleic acid, lipid formulation; source: /note="Description of Unknown: Theiler's disease-associated virus sequence") DNA: TGATACCGTGTCCCGGTACGACCTCGCGCGTCCCCAAGCTCGCCCTGAGGGGGGAGCGTAAGGGCGCGTAGTGGGGTAGCCCCCCAAACCGAGCCACCCTAGTGAGTGACTTTAGAATGGTTAGGGAGACTACCGCCTTCGCTGTTTGGGGACCTAATGATCCGCGTGCCAGGGTTCTTCGGGTAAATCCCGGCGCGGTGTTTTGGGTTCAGGGCAGTAGGGGCAGACGGGCCAGCAGTCGCTGGTTCCTGGTACCACCACCCTATCCGGACGACCTCCCTCACGAAAGGTCGCCACGGTCTGTGGCTCGACGACGCCTATAATTCAGTCCGAGGGGCGCAGCCCTCGTTAAACTTAGGCAAGGTTCCTCGCCATTGATTTGGCCAGGGGTTTAAGTGAACGCCGCCCTTTTAATGTTTAATAGGGTTCTTTCCCGGCGGGTTGACAAACACTTCCCTGGGCTCTTCGTTGGCCTCGGTTCCTTGATGCTTCGGCACCCATGAGCGCACAGGGGGGGGACCCTGCGACAGTCCGCCAAGAGGAAAATCCTTCGGGTGACCTCGTGCGCAACCCAATCCCTTCTTCTTCCACATGGCGTGTCTGTGGTGCATGCTGTG	7.84E+04
Rodent pegivirus (nucleic acid, listed as Pegivirus sp., lipid formulation) DNA: GGACTTCGGTCCCCCTGTTACTCTGCGAGCCACCGCAGAGCCAGGGTTGGTACGCCCGAGGTGTTAGACCCCGGCCGAAAGCTCCTAACCATGGGGTTAGTAGGACGTGGTAAATGCCACTGAGGGGTTGGAGAGCTGGTAGAGCGAGTAAGTCGGCGTAAGGCCCGAGTACGGGCCTCCCAGCCCGGGTCAGCCTAAACCTGGCTGTGATACCCGGTGCATGGAGGGCGTGTCCCAACGCTCGATCGCTGTAGGGTGGGTCCCTGCAGTTGGGTGTGGCTACCCTGCTCGTACTGCTTGATAGAGTCCCGGCGGACGGACCAGCTCTCGTCAGTCCGTGGAGTTGCAC	1.79E+05
Sakobuvirus A FFUP1 (1x mut) (nucleic acid, lipid formulation) DNA: TCACGCGCTTTTCCGGTGGTCACCCACCGTTAGGGAGCGCCAGCGTTCGCGCTTCCGCTACCAGGTGACACACTCCTTTCCCCTCCCCCATTCCCGTTCCCATCCTCTGGACTGGTTTCTCCTCACGATTGACCAGCAGCTGGGAGCTGTTACCAGACGTTGGACAGTAAGTCCCGGATGCACTATAGGGCTGGTGGCTAGTGCTTGGTAAGCACTCAACGCCATACCTAATGTGTACCTCGGCTTGCCCTCCTGGTCGTGGTGACCGGCTGTTTCTCTTCCCTTGGCTCCAGACGGGCTGGTGTCCTACCACCACCGTTGCATGCAGACCTCCCCCTGCGCACTCGAACGCCCTGTCCCAGCAGGGTTAGTATGTGCTGTGCAGATCTGCATGTGACACCCCATCCACTGGTAGAGCAGGAAGTTGCCCTAGCTAACGCGGCAAGTATTACTTTCCGCTACACGTCCTTGAGATTCCTCGGACCTCTGGAACTAGGGTGACTGTGGGCTTGGGAAAACCCACCTTGGTCCTGTACTGCCTGATAGGGTCGCGGCTGGCCGACCAGTGGATGTAGCCAGTTGTTTTGGGAT	8.82E+06
Human pegivirus 2: "an IRES is an IRES sequence of ... Human Pegivirus 2" (nucleic acid, listed as Pegivirus sp.) DNA: AACTGTTGTTGTAGCAATGCGCATATTGCTACTTCGGTACGCCTAATTGGTAGGCGCCCGGCCGACCGGCCCCGCAAGGGCCTAGTAGGACGTGTGACAATGCCATGAGGGATCATGACACTGGGGTGAGCGGAGGCAGCACCGAAGTCGGGTGAACTCGACTCCCAGTGCGACCACCTGGCTTGGTCGTTCATGGAGGGCATGCCCACGGGAACGCTGATCGTGCAAAGGGATGGGTCCCTGCACTGGTGCCATGCGCGGCACCACTCCGTACAGCCTGATAGGGTGGCGGCGGGCCCCCCCAGTGTGACGTCCGTGGAGCGCAAC	3.14E+05
GB virus C/Hepatitis G virus (nucleic acid, lipid formulation; source: /note="Description of Unknown: GB virus C/Hepatitis G virus sequence") CCCCCGGCACTGGGTGCAAGCCCCAGAAACCGACGCCTATCTAAGTAGACGCAATGACTCGGCGCCGACTCGGCGACCGGCCAAAAGGTGGTGGATGGGTGATGACAGGGTTGGTAGGTCGTAAATCCCGGTCACCTTGGTAGCCACTATAGGTGGGTCTTAAGAGAAGGTTAAGATTCCTCTTGTGCCTGCGGCGAGACCGCGCACGGTCCACAGGTGTTGGCCCTACCGGTGGGAATAAGGGCCCGACGTCAGGCTCGTCGTTAAACCGAGCCCGTTACCCACCTGGGCAAACGACGCCCACGTACGGTCCACGTCGCCCTTCAATGTCTCTCTTGACCAATAGGCGTAGCCGGCGAGTTGACAAGGACCAGTGGGGGCCGGGGGCTTGGAGAGGGACTCCAAGTCCCGCCCTTCCCGGTGGGCCGGGAAATGC	1.36E+05
Zika Virus (nucleic acid, listed as Zika virus, chemistry not fully specified; the letters are possibly those of the target site) DNA: AGTTGTTGATCTGTGTGAGTCAGACTGCGACAGTTCGAGTCTGAAGCGAGAGCTAACAACAGTATCAACAGGTTTAATTTGGATTTGGAAACGAGAGTTTCTGGTC	8.61E+04
Yokose virus (nucleic acid, listed as Yokose virus, lipid formulation) DNA: AGTAAATTTTGCGTGCTAGTCGCTGAGCGTCAGACCGCAAAGTGAGTTTTTAGTGATCTAAAGTGAGGAGTTATTCTTACTGTCATCAAACACTACAAATAAACACGTTGAAATTATTTCCGGAAGAACAACTGTCCGGAATCAAAGACG	8.55E+04
Equine hepacivirus (nucleic acid, listed as Hepacivirus sp., lipid formulation) ACCTCCGTGCTATGCACGGTGCGTTGTCAGCGTTTTGCGCTTGCATGCGCTACACGCGTCGTCCAACGCGGAGGGATTCTTCCACATTACCATGTGTCACTCCCCCTATGGAGGGTTCCACCCCGCCCACACGGAAATAGGTTAACCATACCTATAGTACGGGTGAGCGGGTCCTCCTAGGGCCCCCCCGGCAGGTCGAGGGAGCTGAAATTCGTGAATCCGTGAGTACACGGAAATCGCGGCTTGAACGTCATACGTGACCTTCGGAGCCGAAATTTGGGCGTGCCCCACGAAGGAAGGCGGGGGCGGTGTTGGGCCGCCGCCCCCTTTATCCCACGGTCTGATAGGATGCTTGCGAGGGCACCTGCCGGTCTCGTAGACCATAGGAC	8.40E+04
